± gives the uncertainty stated by the source.

A short description of the data set: self-splicing fitness, log relative to wild type (ln ratio); higher = more splicing; Tetrahymena group I intron in knt gene, E. coli kanamycin selection, DiMSum; sequences stand for … in CUCUCU…GGAGGGAAAAGUUAUCAGGCAUGCACCUGGUAGCUAGUCUUUAAACCAAUAGAUUGCAUCGGUUUAAAAGGCAAGACCGUCAAAUUGCGGGAAAGGGGUCAACAGCCGUUCAGUACCAAGUCUCAGGGGAAACUUUGAGAUGGCCUUGCAAAGGGUAUGGUAAUAAGCUGACGGACAUGGUCCUAACCACGCAGCCAAGUCCUAAGUCAACAGAUCUUCUGUUGAUAUGGAUGCAGUUCACAGACUAAAUGUCGGUCGGGGAAGAUGUAUUCUUCUCAUAAGAUAUAGUCGGACCUCUCCUUAAUGGGAGCUAGCGGAUGAAGUGAUGCAACACUGGAGCCGCUGGGAACUAAUUUGUAUGCGAAAGUAUAUUGAUUAGUUUUGGAGUACUCGUGGUCG
The method in brief:
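Six replicate transformations of E. coli BL21(DE3) with a pET-22b(+) library were grown overnight at 37°C or 30°C. The library randomised all eight P1ex-region intron nucleotides, the intron lying in the knt kanamycin-resistance gene, and plates were LB agar with or without 25 μg/mL kanamycin plus 100 μg/mL carbenicillin, 50 μM IPTG and 0.2% rhamnose. Pooled colonies were amplicon-sequenced on an Illumina HiSeq 2500, and fitness is the DiMSum error-weighted combination of wild-type-normalised replicate fold changes, kanamycin versus none.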

As to CUGAAGCAAUAUUACGCAUA, the “self-splicing fitness (ln)” value runs as follows: (30 °C) -3.91 ± 0.3; (37 °C) -2.57 ± 0.32.
For the sequence CUGAAGCAAUAUUACGCGCC, where the note is “30 °C”, the “self-splicing fitness (ln)” value was -3.07 ± 0.31.
As for CUGAAGCAAUAUUACGCGUU, the “self-splicing fitness (ln)” value is -3.36 ± 0.18 (30 °C) and -2.86 ± 0.24 (37 °C).
As for CUGAAGCAAUAUUACGCUCC, the “self-splicing fitness (ln)” value (30 °C) was -2.74 ± 0.34.
As to CUGAAGCAAUAUUACGCUGA, the “self-splicing fitness (ln)” value (30 °C) was -3.66 ± 0.24 and the “self-splicing fitness (ln)” value (37 °C) is -3.28 ± 0.43.
In the same order, the values of CUGAAGCAAUAUUACGGGCU are -3.56 ± 0.17 and -3.15 ± 0.21.
The like results for CUGAAGCAAUAUUACGGGGU were, in that order, -3.34 ± 0.24 and -0.289 ± 0.17.
For the sequence CUGAAGCAAUAUUACGGGUA, the “self-splicing fitness (ln)” value was -3.21 ± 0.15 (30 °C) and -3.96 ± 0.42 (37 °C).
With CUGAAGCAAUAUUACGGGUC, the “self-splicing fitness (ln)” value (30 °C) is -3.92 ± 0.4.
Regarding CUGAAGCAAUAUUACGGGUG, the “self-splicing fitness (ln)” value by setting is: (30 °C) -0.0462 ± 0.047; (37 °C) 0.304 ± 0.071.
The like results for CUGAAGCAAUAUUACGGUUA were, in that order, -4.2 ± 0.35 and -2.52 ± 0.28.
On to CUGAAGCAAUAUUACGUACG, for which the “self-splicing fitness (ln)” value (30 °C) is 0.694 ± 0.073 and the “self-splicing fitness (ln)” value (37 °C) worked out at 0.514 ± 0.09.
The like results for CUGAAGCAAUAUUACGUCGU were, in that order, -3.23 ± 0.26 and -1.79 ± 0.21.
With CUGAAGCAAUAUUACGUCUG, the “self-splicing fitness (ln)” value reads like this: (30 °C) 0.302 ± 0.069; (37 °C) 0.352 ± 0.08.
In the case of CUGAAGCAAUAUUACGUGGG, the “self-splicing fitness (ln)” value was -2.66 ± 0.095 (30 °C) and -1.89 ± 0.11 (37 °C).
The like results for CUGAAGCAAUAUUACGUGUC were, in that order, -2.53 ± 0.14 and -2.81 ± 0.28.
In the same order, the values of CUGAAGCAAUAUUACGUUAU are -4.59 ± 0.23 and -3.63 ± 0.37.
In the same order, the values of CUGAAGCAAUAUUACGUUCA are -1.87 ± 0.11 and -0.567 ± 0.12.
In the case of CUGAAGCAAUAUUACGUUCG, the “self-splicing fitness (ln)” value (30 °C) was 0.231 ± 0.06 and the “self-splicing fitness (ln)” value (37 °C) is -0.181 ± 0.082.
On to CUGCAGCAAUAUUACGAAAA, for which, for the setting “37 °C”, the “self-splicing fitness (ln)” value was -2.19 ± 0.31.
Still for that read-out and setting: the figure for CUGCAGCAAUAUUACGAAAC is -1.87 ± 0.37.
Regarding CUGCAGCAAUAUUACGAAAG, the “self-splicing fitness (ln)” value is -1.42 ± 0.14 (30 °C) and -1.47 ± 0.15 (37 °C).
The like results for CUGCAGCAAUAUUACGCAAG were, in that order, -2.58 ± 0.18 and -2.83 ± 0.44.
CUGCAGCAAUAUUACGCCUU: the “self-splicing fitness (ln)” value runs as follows: (30 °C) -2.87 ± 0.15; (37 °C) -2.94 ± 0.29.
Regarding CUGCAGCAAUAUUACGCGUG, the “self-splicing fitness (ln)” value is -1.92 ± 0.12 (30 °C) and -1.67 ± 0.16 (37 °C).
In the same order, the values of CUGCAGCAAUAUUACGGAGG are -2.5 ± 0.13 and -2.03 ± 0.21.
As for CUGCAGCAAUAUUACGGGCC, the “self-splicing fitness (ln)” value (37 °C) is -1.2 ± 0.5.
Consider CUGCAGCAAUAUUACGGGGC, for which the “self-splicing fitness (ln)” value was -3.94 ± 0.22 (30 °C) and -1.83 ± 0.18 (37 °C).
With CUGCAGCAAUAUUACGGGGU, the “self-splicing fitness (ln)” value by setting is: (30 °C) -4.93 ± 0.45; (37 °C) -2.73 ± 0.2.
Turning to CUGCAGCAAUAUUACGUAUC, the “self-splicing fitness (ln)” value is, setting by setting: (30 °C) -4.37 ± 0.19; (37 °C) -2.73 ± 0.18.
In the same order, the values of CUGCAGCAAUAUUACGUCAA are -3.08 ± 0.17 and -1.47 ± 0.12.
The like results for CUGCAGCAAUAUUACGUCUG were, in that order, -2.34 ± 0.16 and -0.738 ± 0.17.
In the same order, the values of CUGCAGCAAUAUUACGUGCA are -2.38 ± 0.13 and -0.522 ± 0.1.
As for CUGCAGCAAUAUUACGUGGG, the “self-splicing fitness (ln)” value reads like this: (30 °C) -4.18 ± 0.18; (37 °C) -3 ± 0.13.
The like results for CUGCAGCAAUAUUACGUUUC were, in that order, -3.11 ± 0.14 and -3.1 ± 0.25.
In the same order, the values of CUGGAGCAAUAUUACGAAAA are -2.86 ± 0.25 and -1.6 ± 0.22.
Take CUGGAGCAAUAUUACGCCUU: the “self-splicing fitness (ln)” value (37 °C) was -1.6 ± 0.43.
For the sequence CUGGAGCAAUAUUACGCGGU, the “self-splicing fitness (ln)” value (30 °C) is -1.94 ± 0.1 and the “self-splicing fitness (ln)” value (37 °C) is -2.46 ± 0.24.
For CUGGAGCAAUAUUACGCGUA, the “self-splicing fitness (ln)” value (37 °C) is -2.81 ± 0.43.
Take CUGGAGCAAUAUUACGCUAU: the “self-splicing fitness (ln)” value is, setting by setting: (30 °C) -3.45 ± 0.38; (37 °C) -2.67 ± 0.38.

For the origin of these results see the supplement of paper PMC7877785.
